# Data: patent US20200405852A1 (BIOVERATIV USA, published 2020)
# T1: activated human complement C1s (human, UniProt P09871 16-688)
# T1 construct: also called aC1s; active C1s
# T1 sequence: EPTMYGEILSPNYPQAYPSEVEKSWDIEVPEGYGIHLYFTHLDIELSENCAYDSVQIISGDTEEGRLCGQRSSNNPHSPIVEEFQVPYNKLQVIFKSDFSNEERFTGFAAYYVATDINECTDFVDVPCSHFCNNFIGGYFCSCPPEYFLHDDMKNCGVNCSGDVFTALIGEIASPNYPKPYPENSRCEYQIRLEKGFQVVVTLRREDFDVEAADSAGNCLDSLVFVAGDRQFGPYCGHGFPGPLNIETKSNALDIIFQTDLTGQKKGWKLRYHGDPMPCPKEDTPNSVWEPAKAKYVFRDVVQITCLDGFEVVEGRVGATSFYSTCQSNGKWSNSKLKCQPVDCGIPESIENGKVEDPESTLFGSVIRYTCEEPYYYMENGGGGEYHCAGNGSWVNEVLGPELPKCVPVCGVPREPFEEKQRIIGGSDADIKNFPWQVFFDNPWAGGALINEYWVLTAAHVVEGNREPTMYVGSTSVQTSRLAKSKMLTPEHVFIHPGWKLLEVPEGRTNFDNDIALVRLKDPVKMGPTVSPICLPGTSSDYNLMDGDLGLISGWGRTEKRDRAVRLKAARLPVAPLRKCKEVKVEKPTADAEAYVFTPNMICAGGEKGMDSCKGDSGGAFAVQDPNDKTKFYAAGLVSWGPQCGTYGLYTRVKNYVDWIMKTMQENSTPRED
# Key:
# [1] = target: T1, activated human complement C1s; assay: direct binding of antibody to activated C1s (aC1s); assay format not stated
# [2] = target: T1, activated human complement C1s; assay: competition binding to active C1s; competitor 50 pM biotinylated TNT005 (Biot-005)
# Experimental: All 15 combinations (VH variant 1+Vk variant 1; VH variant 1+Vk variant 2; VH variant 1+Vk variant 5; VH variant 2+Vk variant 1; VH variant 2+Vk variant 2; VH variant 2+Vk variant 5; VH variant 3+Vk variant 1; VH variant 3+Vk variant 2; VH variant 3+Vk variant 5; VH variant 4+Vk variant 1; VH variant 4+Vk variant 2; VH variant 4+Vk variant 5; VH variant 5+Vk variant 1; VH variant 5+Vk variant 2; VH variant 5+Vk variant 5) were produced. Each humanized variant was tested for the ability to compete with biotinylated TNT005 for binding to active C1s.
# [3] = target: T1, activated human complement C1s; assay: cell-based or functional assay
# [4] = target: T1, activated human complement C1s; assay: kinetic characterization of binding to active human C1s; instrument not stated; column head kdis
# [5] = target: T1, activated human complement C1s; assay: kinetic characterization of binding to active human C1s; instrument not stated
Binder,EC50 [1] [nM],IC50 [2] [nM],IC50 of classical complement pathway inhibition (commercial CP activation assay) [3] [nM],koff [4] [s⁻¹],Kd [5] [nM],kon [5] [M⁻¹ s⁻¹]
"TNT005.001 (antibody, V domains shown, Unlabelled parental antibody; also called parental TNT005 (not biotinylated)) VH: EVQLQQSGAELVRPGASVKLSCTASGFNIKDDYIHWVKQRPEQGLEWIGRIDPADGHTKYAPKFQVKATITADTSSNTAYLQLSSLTSEDTAVYYCARYGYGREVFDYWGQGTTLTVSS VL: DIVLTQSPASLAVSLGQRATISCKASQSVDYDGDSYMNWYQQKTGQPPKILIYDASNLESGIPARFSGSGSGTDFTLNIHPVEEEDAAIYYCQQSNEDPWTFGGGTKLEIK",0.0559,0.0395,1.06,–,–,–
"humanized TNT005 variant VH variant 3+Vk variant 2 (antibody, V domains shown, also called VH variant 3 + VL variant 2) VH: QVQLVQSGAEVKKPGASVKLSCTASGFNIKDDYIHWVKQAPGQGLEWIGRIDPADGHTKYAPKFQVKVTITADTSTSTAYLELSSLRSEDTAVYYCARYGYGREVFDYWGQGTTVTVSS VL: DIVLTQSPDSLAVSLGERATISCKASQSVDYDGDSYMNWYQQKPGQPPKILIYDASNLESGIPARFSGSGSGTDFTLTISSLEPEDFAIYYCQQSNEDPWTFGGGTKVEIK",0.163,0.183,1.26,0.00049,0.585,838000
"biotinylated TNT005 (antibody, V domains shown, Parental antibody; also called Biot-005; parental TNT005) VH: EVQLQQSGAELVRPGASVKLSCTASGFNIKDDYIHWVKQRPEQGLEWIGRIDPADGHTKYAPKFQVKATITADTSSNTAYLQLSSLTSEDTAVYYCARYGYGREVFDYWGQGTTLTVSS VL: DIVLTQSPASLAVSLGQRATISCKASQSVDYDGDSYMNWYQQKTGQPPKILIYDASNLESGIPARFSGSGSGTDFTLNIHPVEEEDAAIYYCQQSNEDPWTFGGGTKLEIK",0.0828,–,–,–,–,–
"humanized TNT005 variant VH variant 3+Vk variant 5 (antibody, V domains shown, also called VH variant 3 + VL variant 5) VH: QVQLVQSGAEVKKPGASVKLSCTASGFNIKDDYIHWVKQAPGQGLEWIGRIDPADGHTKYAPKFQVKVTITADTSTSTAYLELSSLRSEDTAVYYCARYGYGREVFDYWGQGTTVTVSS VL: DIVLTQSPDSLAVSLGERATISCKASQSVDYDGDSYMNWYQQKPGQPPKLLIYDASNLESGIPARFSGSGSGTDFTLTISSLEPEDFAVYYCQQSNEDPWTFGGGTKVEIK",0.138,0.158,1.38,–,–,–
"humanized TNT005 variant VH variant 1+Vk variant 5 (antibody, V domains shown, also called VH variant 1 + VL variant 5) VH: EVQLVQSGAELKKPGASVKLSCTASGFNIKDDYIHWVKQAPGQGLEWIGRIDPADGHTKYAPKFQVKATITADTSTNTAYLQLSSLTSEDTAVYYCARYGYGREVFDYWGQGTTVTVSS VL: DIVLTQSPDSLAVSLGERATISCKASQSVDYDGDSYMNWYQQKPGQPPKLLIYDASNLESGIPARFSGSGSGTDFTLTISSLEPEDFAVYYCQQSNEDPWTFGGGTKVEIK",0.107,0.129,1.26,0.000168,0.217,776000
"humanized TNT005 variant VH variant 2+Vk variant 1 (antibody, V domains shown, also called VH variant 2 + VL variant 1) VH: EVQLVQSGAEVKKPGASVKLSCTASGFNIKDDYIHWVKQAPGQGLEWIGRIDPADGHTKYAPKFQVKATITADTSTNTAYLELSSLRSEDTAVYYCARYGYGREVFDYWGQGTTVTVSS VL: DIVLTQSPDSLAVSLGERATISCKASQSVDYDGDSYMNWYQQKTGQPPKILIYDASNLESGIPARFSGSGSGTDFTLTISSLEEEDFAIYYCQQSNEDPWTFGGGTKVEIK",0.137,0.144,1.23,0.000208,0.251,829000
"humanized TNT005 variant VH variant 1+Vk variant 2 (antibody, V domains shown, also called VH variant 1 + VL variant 2) VH: EVQLVQSGAELKKPGASVKLSCTASGFNIKDDYIHWVKQAPGQGLEWIGRIDPADGHTKYAPKFQVKATITADTSTNTAYLQLSSLTSEDTAVYYCARYGYGREVFDYWGQGTTVTVSS VL: DIVLTQSPDSLAVSLGERATISCKASQSVDYDGDSYMNWYQQKPGQPPKILIYDASNLESGIPARFSGSGSGTDFTLTISSLEPEDFAIYYCQQSNEDPWTFGGGTKVEIK",0.088,0.0557,1.14,0.00017,0.208,818000
"humanized TNT005 variant VH variant 1+Vk variant 1 (antibody, V domains shown, also called VH variant 1 + VL variant 1) VH: EVQLVQSGAELKKPGASVKLSCTASGFNIKDDYIHWVKQAPGQGLEWIGRIDPADGHTKYAPKFQVKATITADTSTNTAYLQLSSLTSEDTAVYYCARYGYGREVFDYWGQGTTVTVSS VL: DIVLTQSPDSLAVSLGERATISCKASQSVDYDGDSYMNWYQQKTGQPPKILIYDASNLESGIPARFSGSGSGTDFTLTISSLEEEDFAIYYCQQSNEDPWTFGGGTKVEIK",0.201,0.124,1.2,0.000197,0.228,864000
"humanized TNT005 variant VH variant 3+Vk variant 1 (antibody, V domains shown, also called VH variant 3 + VL variant 1) VH: QVQLVQSGAEVKKPGASVKLSCTASGFNIKDDYIHWVKQAPGQGLEWIGRIDPADGHTKYAPKFQVKVTITADTSTSTAYLELSSLRSEDTAVYYCARYGYGREVFDYWGQGTTVTVSS VL: DIVLTQSPDSLAVSLGERATISCKASQSVDYDGDSYMNWYQQKTGQPPKILIYDASNLESGIPARFSGSGSGTDFTLTISSLEEEDFAIYYCQQSNEDPWTFGGGTKVEIK",0.168,0.179,1.27,–,–,–

# Continued, values first:
EC50 [1] [nM],IC50 [2] [nM],IC50 of classical complement pathway inhibition (commercial CP activation assay) [3] [nM],koff [4] [s⁻¹],Kd [5] [nM],kon [5] [M⁻¹ s⁻¹],Binder
0.152,0.152,1.35,–,–,–,"humanized TNT005 variant VH variant 4+Vk variant 1 (antibody, V domains shown, also called VH variant 4 + VL variant 1) VH: QVQLVQSGAEVKKPGASVKVSCTASGFNIKDDYIHWVRQAPGQGLEWIGRIDPADGHTKYAPKFQVKVTITADTSTSTAYMELSSLRSEDTAVYYCARYGYGREVFDYWGQGTTVTVSS VL: DIVLTQSPDSLAVSLGERATISCKASQSVDYDGDSYMNWYQQKTGQPPKILIYDASNLESGIPARFSGSGSGTDFTLTISSLEEEDFAIYYCQQSNEDPWTFGGGTKVEIK"
0.164,0.148,1.31,–,–,–,"humanized TNT005 variant VH variant 5+Vk variant 2 (antibody, V domains shown, also called VH variant 5 + VL variant 2) VH: QVQLVQSGAEVKKPGASVKVSCAASGFNIKDDYIHWVRQAPGQGLEWIGRIDPADGHTKYAPKFQVKVTITADTSTSTAYMELSSLRSEDTAVYYCARYGYGREVFDYWGQGTTVTVSS VL: DIVLTQSPDSLAVSLGERATISCKASQSVDYDGDSYMNWYQQKPGQPPKILIYDASNLESGIPARFSGSGSGTDFTLTISSLEPEDFAIYYCQQSNEDPWTFGGGTKVEIK"
0.119,0.158,1.31,–,–,–,"humanized TNT005 variant VH variant 4+Vk variant 2 (antibody, V domains shown, also called VH variant 4 + VL variant 2) VH: QVQLVQSGAEVKKPGASVKVSCTASGFNIKDDYIHWVRQAPGQGLEWIGRIDPADGHTKYAPKFQVKVTITADTSTSTAYMELSSLRSEDTAVYYCARYGYGREVFDYWGQGTTVTVSS VL: DIVLTQSPDSLAVSLGERATISCKASQSVDYDGDSYMNWYQQKPGQPPKILIYDASNLESGIPARFSGSGSGTDFTLTISSLEPEDFAIYYCQQSNEDPWTFGGGTKVEIK"
0.165,0.137,1.33,–,–,–,"humanized TNT005 variant VH variant 5+Vk variant 5 (antibody, V domains shown, also called VH variant 5 + VL variant 5) VH: QVQLVQSGAEVKKPGASVKVSCAASGFNIKDDYIHWVRQAPGQGLEWIGRIDPADGHTKYAPKFQVKVTITADTSTSTAYMELSSLRSEDTAVYYCARYGYGREVFDYWGQGTTVTVSS VL: DIVLTQSPDSLAVSLGERATISCKASQSVDYDGDSYMNWYQQKPGQPPKLLIYDASNLESGIPARFSGSGSGTDFTLTISSLEPEDFAVYYCQQSNEDPWTFGGGTKVEIK"
0.205,0.156,1.54,–,–,–,"humanized TNT005 variant VH variant 4+Vk variant 5 (antibody, V domains shown, also called VH variant 4 + VL variant 5) VH: QVQLVQSGAEVKKPGASVKVSCTASGFNIKDDYIHWVRQAPGQGLEWIGRIDPADGHTKYAPKFQVKVTITADTSTSTAYMELSSLRSEDTAVYYCARYGYGREVFDYWGQGTTVTVSS VL: DIVLTQSPDSLAVSLGERATISCKASQSVDYDGDSYMNWYQQKPGQPPKLLIYDASNLESGIPARFSGSGSGTDFTLTISSLEPEDFAVYYCQQSNEDPWTFGGGTKVEIK"
